The values below are quoted from earlier work in US20020168685A1, “Covalent chemical inducers of protein dimerization and their uses in high throughput binding screens” (priority 2001, published 2002).

What is called Km is the concentration of substrate that gives half-maximal velocity. What is called kcat is the number of substrate molecules converted per active site and unit of time at saturation.

The conditions of the data set: substrate nitrocefin.

B1: E. cloacae P99 wt: wild-type E. cloacae P99 cephase (protein, UniProt P05364 21-381, looked up)
Beta-lactamase: TPVSEKQLAEVVANTITPLMKAQSVPGMAVAVIYQGKPHYYTFGKADIAANKPVTPQTLFELGSISKTFTGVLGGDAIARGEISLDDAVTRYWPQLTGKQWQGIRMLDLATYTAGGLPLQVPDEVTDNASLLRFYQNWQPQWKPGTTRLYANASIGLFGALAVKPSGMPYEQAMTTRVLKPLKLDHTWINVPKAEEAHYAWGYRDGKAVRVSPGMLDAQAYGVKTNVQDMANWVMANMAPENVADASLKQGIALAQSRYWRIGSMYQGLGWEMLNWPVEANTVVEGSDSKVALAPLPVAEVNPPAPPVKASWVHKTGSTGGFGSYVAFIPEKQIGIVMLANTSYPNPARVEAAYHILEALQ
As for B1, the “% WT (percentage of wild-type kcat/Km as calculated in that experiment)” value is given as 100%, the Michaelis-Menten constant (Km) is 25 ± 1 µM and the turnover number (kcat) was 780 ± 30 s⁻¹.
